Results from the DeepSol protein solubility set.

Experiment: soluble on expression in E. coli; label from the status in PepcDB or PDB records

Row | Sequence | soluble on expression in E. coli
1 | MNQKDTRKETLEFNKLQKRLRRNVGNAITDYNMIEEGDVVMACISGGKDSFAMLDILLNLQKAAPIKFEVVAVNLDQKQPGFPEHILPEYFETLNIPYYIVDKDTYSVVKEKVPEGKTTCGLCSRLRRGTLYSFAEKIGATKLALGHHMDDIVETMFLNMFHGSRLKAMPPKLRSDDGRNVVIRPLTYCREKDLIKYAEHKDFPIIPCNL | not soluble
2 | MRKAAALSLLVLVILSTTLAGCNFGKGSNEEDSKGTNLKLPCSIVSTISGEDVLYYEIEGDSLKKLDLDLKGHMEVYSEELGLAVYREFADKGTNLIITNGVKEHKISVEGNIEELIISPKGTKLLYRYNSGDKIGYKVLDLQNFKEFDFNENLAISGENVKFVNEDQLILYGVDLEKRQSGLYIYNIKDGSYTLEKQIVKAFIDYIDLVEDQVVLYTQSSIDGKKNCYIYNLDSKKESVISNEVGEIESLCKIGNVVYFIGTKGEGLRSLYSIDITNNKLDRLVYDFPKNISEKSKLIVVGDNIYFLGFNDSKEKNALYRYNLKDKSIKLIDSNKGQYIIIKMAGDPLEHHHHHH | not soluble
3 | MSLEAILPVPEEKQVDWQKMETYAFVHFGLNTFNDREWGYGDSEPKTFNPTKLDCEQWVKTFVESGMKGVILTAKHHDGFCLWPTQLTEYCIRNTPYKDGKGDIVGELAAACKKYGIKFAVYLSPWDRHQANYGTPEYVDYFHKQLTELMTNYGEVFEVWFDGANGGDGWYGGAKDSRTIDRKTYYNYPRIYEILDKLQPQAIVFSDGGPGCRWVGNENGFAGATNWSFLRAGEVYPGYPKYRELQYGHADGNQWVPAECDVSIRPGWFYHPEEDDRVKTVEQLTDLYYRSVGHNATLLLNFPVDRDGLIHPIDSANAVNFHKNVQKQLAHNLLAGIRPKASDERGGQFSAKAATDESWDTYWATNDGVTAADIEFDFPKTEKVNRMMIQEYIPLGQRVKSFIVEYDKDGKWLPVKLNEETTTVGYKRLLRFETVSTDKLRIRFTDARACLCINNIEAYYAGETADTFTVEAKELKSYPFTLVGVPEEETKKCMDKDKNTTAFVEGDALVIDLGEERTITSFHYLPDQSEYNKGLISSYELSVGTEANAVNRIVAQGEFSNIKNNPILQSVYFTPVKARYLSLKPTKMVTEGETMGFAEIGIQEGHHHHHH | soluble
4 | MGSDKIHHHHHHMKKSTLIDKFLDLLSSRSSLREIQNNFIDANIMRDSSINQKYNGQRKSLAWEYISTLNLEDEAEFSKLLNVIETYLFQWNLYIHEVDEDEEINRLIKIINVLGYEYNKDTGKITKNEREVNLSTIKSLAIKFDIEYVLKECNRIEKEALTDPEDAITSAKSMVESTLKHILDSEGEKFNNNETLRGLYKKVSNIMNLSPGGHNENTFKTILSGMINVINGLDEVRNEYGDAHGKSKKNYRPETRHAFLAINAARTITEFLLASYKK | not soluble
5 | MGSDKIHHHHHHMRALSFIFIALILVGCNEPAKEITKPIRPIMWTKVKISPFEQIRTLSGIVAPVEATKLSFEVQGKIQTIEVNLGNEVVKGQELARLNQRNFNLGLQSAQAQYQQAKATLIDARNSHRRYEQLLKQGVVSQSGFDNAKATYDASKSAADVAQAQLDIASKNLQDSILLAPYDGIITKRLYEPSQQISAGQSLFEIEGKHGLEVHVMVPETLIRELRQLSILPIHFPVLPELTMQGQITEIGTRAEYANAFPVTAVLEGDNPLLRAGMTAEVDFSFSGTGRTGHTGDVFRIPATALSAGLEQKAYVFVYNPDSQQVIKTQVQTENIFKNEVFISSGLKQGDIIAIAGVAFLRDGQQVSLTDNNVQRFN | not soluble
6 | MSLSRVEETGLGFVGTFESGFTQGTVGVGVDAIGMLGLKLDSGKGRAGTGLFPTGSDGRSQDDYSKGGGAVKFRISDTVLKVGDQFTALPVFATDDSRLLPEIAQGTLITSNEIEGLTLHAGHFTSLTAQEQTNRDSFGLKEANVVGGTYAFTDNLSTSLYYSKVEDYWRKYYANVNWALPISDNQGLVFDFNIYDTKSEGSAEYRAFDGDKLDNRAFSLSGAYNIGAHTFTLAYQKVTGDGDYGYGIDGGGTIFLANSVARSDFNAEDEKSWQARYDLNFAEYGIPGLTFMTRYVRGSDANVAGTSNGKEWERDVDIKYVLQEGPAKDLSFRVRQATYRSSDGVYYDSPSIDELRLIVEYPLNILEGHHHHHH | soluble
7 | MDPTRGLCALSTHDLAKFHSLPPARKAAGKRAHLRCYSKLLSLKSWEQLASFLSLPPGPTFTDFRLFFEVTLGRRIADCVVVALQPYPRCYIVEFKTAMSNTANPQSVTRKAQRLEGTAQLCDCANFLRTSCPPVLGSQGLEVLAALVFKNQRSLRTLQVEFPALGQKTLPTSTTGLLNLLSRWQDGALRARLDRPRPTAQGHRPRTHVGPKPSQLTARVPRSARAGRAGGRKGQVGAVGQVCPGAQK | not soluble
8 | VAKATNAPLSVSKIDFKRGDDGSGRLILKFDGQGATPDLRTQGGTVLVDLGTAVLPTVLQRQINVVDFATPVQRIDAKPMGKGAQLVLSTKGAFESLAYQTGDEYVVEIVPRKGEAAM | not soluble
9 | GKRSHSMKRNPNAPVTKAGWLFKQASSGVKQWNKRWFVLVDRCLFYYKDEKEESILGSIPLLSFRVAAVQPSDNISRKHTFKAEHAGVRTYFFSAESPEEQEAWIQAMGEAARVQ | soluble
10 | GMTRSEAQGRLTGLAPVSVIDIGSNSVRLVVYEGLSRAPAVLFNEKVLCGLGKGLALTGRMHEEGVTRALMALRRFHVLSEQAQAQKLYVLATAAAREAENGPDFIREAEAILGCEIEVLSGEKEALYSAYGVISGFYQPDGIAGDLGGGSLELIDIKDKSCGEGITLPLGGLRLSEQSDGSLEKAATIARKHVKSFAKLLAAGEGRTFYAVGGTWRNIAKLHMEISGYPLHMMQGYELPLEEMLNFLEEVIVSRDSKDPAWQAVSKNRRSLLPFGAIAMREVLRAMKPAKIAFSAQGVREGYLYSLLTEAERESDPLLVAADELAILRARSPEHARELADWSGRTFPVFGIDETEEESRYRQAACLLADISWRAHPDYRGLQALNIIAHSSFVAITHPGRAYIALANYYRFEGLNDNGTTEPLAAMAGERLQELGKLLGGLLRVVYLFSASMPGVVDHLKFRKSDNPDIDLEFVVPHDYCDFAGERLDGRLQQLAKLTGKRLAFVFE | soluble
11 | MEHKIREEMRVLPSIDPQFEIERRVAFIKRKLTEARCKSLVLGISGGVDSTTCGRLAQLAVEELNQQHNTTEYQFIAVRLPYGEQKDEDEAQLALSFIRPTHSVSVNIKAGVDGLHAASHHALANTGLIPSDPAKVDFIKGNVKARARMVAQYEIAGYVGGLVLGTDHSAENITGFYTKFGDGACDLAPLFGLNKRQVRLLAKTLGAPEQLVYKTPTADLEELAPQKADEAALNLTYEQIDDFLEGKAVPAEVSQRLVAIYHATQHKRQPIPTIYD | soluble
12 | MALATRNLKVIHIKRIENSRSSLIRANHGSKGIIHLILDQAPYHRADKVKEKAKKLVIHLNYLPPYSPNLNPIERLWKVMNEKVRNNRFFNSAKDFRREIERFFTEILPDIGASLGQSINDNFQLEHHHHHH | not soluble
13 | MAHHHHHHMGGPPRKREREGEALKPKSKEEQLPIKNECTLDRREGKQIVAEKWSEVVVDDNESQERSNESVSESQVYDTEEELLAAGEDLSGDALKDFLRKNFVDFIDEKVARVGDLDLMN | not soluble
14 | MNKKKFENLPKWNNFALFNFLAKDKENSLEVMVAARGFAVPGIVATNYETAEEAANVVKELQTTAEVISVGLGGGGDWQNWRDVLHIARLAPNSHINQPIETAGLTNGLLPETYTNALVRPTGKVGIVKLSSGDEITAEEAVDYCLSANIPSIKFMSIEGTKYLDELVYLTKIAADKGIYGIEPAGGIGADNILEITTAIKSTGIPFYMPHIFGKTIDKATGRTKPEEIEKIFAALEGN | soluble
15 | MGSDKIHHHHHHMSTIGSDLYNSLGLTTSSKVAKKEDALGQADFLKLMTEQLQHQDPLKPMENSAFLGQLAQFSTVQGIGDLNTKVGNFSDSMNSDQVLKGAALVGHNVLVPSAQVAIDATGSAKGVVAATSAGFVNFEITDANGTFVKQLSVPASAAGEVSFAWDGTDANGNRMAAGKYGITATQTDTAGAKSKLATYVDAPVDSVTIGSDGLYLNLTGLGTSPLANVLRVS | not soluble
